Test system: NC(=O)c1ccc[n+]([C@@H]2O[C@H](COP(=O)(O)OP(=O)(O)OC[C@H]3O[C@@H](n4cnc5c(N)ncnc54)[C@H](O)[C@@H]3O)[C@@H](O)[C@H]2O)c1
Test: purified protein
Details: pH 8.1

Work on (Oryza sativa Japonica Group) yielded a Km of 193.7 ± 98.2 µM.

From publication PMC6422694
